Measured values from US20170305975A1.

How the values were obtained:
[1] = biological target: amyloid-β 1-42 fibers (fAβ42) (human) (UniProt P05067); assay: Aβ binding competition assay; ArgC-treated M13 as competitor of Alexa-488 M13; fifth bar, label printed [5 FOLD] (the text speaks of 15 fold)
[2] = biological target: amyloid-β 1-42 fibers (fAβ42) (human) (UniProt P05067); assay: Aβ binding competition assay; ArgC-treated M13 as competitor of Alexa-488 M13

Chain of amyloid-β 1-42 fibers (fAβ42) (human) (P05067 672-713 limits assumed): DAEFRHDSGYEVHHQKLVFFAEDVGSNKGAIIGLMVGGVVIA

## M13Δg3p (M13 phage with g3p removed by ArgC protease)
[1]
  ALEXA LABELED 488 PELLETED: 85.9
[2]
  ALEXA LABELED 488 PELLETED: 86.7
